Experimental data from the supplement of paper PMC9112550, “Optimization of the antimicrobial peptide Bac7 by deep mutational scanning” (BMC Biology, 2022).

Tested on: Escherichia coli TOP10
Test: shrunken log2 fold change of peptide-encoding DNA abundance (4.5 h post-induction vs induction); higher = less antimicrobial activity (less host growth inhibition)
Details: time post-induction: 4.5 h; library: site-saturation at positions 5, 18, 19, 20
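Also: peptides expressed intracellularly from a pBAD plasmid library in pooled LB shake-flask culture, induced with 0.3% L-arabinose, DNA abundance read by NGS, three biological replicates, DESeq2 with apeglm shrinkage.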

| Sequence | shrunken log2 fold change |
| --- | --- |
| RRIRKRPPRLPRPRPRPIWSPRP | -0.0718 |
| RRIRRRPPRLPRPRPRPGQQPRP | 0.119 |
| RRIRTRPPRLPRPRPRPHVHPRP | -0.511 |
| RRIRQRPPRLPRPRPRPCCQPRP | -0.00534 |
| RRIRCRPPRLPRPRPRPTTFPRP | -0.635 |
| RRIRFRPPRLPRPRPRPIMEPRP | -0.319 |
| RRIRLRPPRLPRPRPRPQNTPRP | -0.42 |
| RRIRERPPRLPRPRPRPSGIPRP | -0.272 |
| RRIRDRPPRLPRPRPRPAEHPRP | -0.0618 |
| RRIRSRPPRLPRPRPRPICLPRP | 0.259 |
| RRIRARPPRLPRPRPRPAYTPRP | -0.0472 |
| RRIRARPPRLPRPRPRPDMYPRP | -0.0823 |
| RRIRVRPPRLPRPRPRPARPPRP | 0.486 |
| RRIRPRPPRLPRPRPRPNMSPRP | -0.485 |
| RRIRQRPPRLPRPRPRPYFWPRP | -0.101 |
| RRIRPRPPRLPRPRPRPCFCPRP | 0.299 |
| RRIRARPPRLPRPRPRPRQAPRP | 0.414 |
| RRIRSRPPRLPRPRPRPHLEPRP | -0.395 |
| RRIRPRPPRLPRPRPRPIKEPRP | -0.00478 |
| RRIRSRPPRLPRPRPRPQFMPRP | -0.274 |
| RRIRKRPPRLPRPRPRPTPRPRP | 1.05 |
| RRIRYRPPRLPRPRPRPKQNPRP | -0.473 |
| RRIRERPPRLPRPRPRPENQPRP | -0.174 |

| Sequence | shrunken log2 fold change |
| --- | --- |
| RRIRARPPRLPRPRPRPIVNPRP | -0.178 |
| RRIRPRPPRLPRPRPRPNFDPRP | -0.0128 |
| RRIRNRPPRLPRPRPRPQEHPRP | 0.422 |
| RRIRWRPPRLPRPRPRPRFQPRP | 0.199 |
| RRIRTRPPRLPRPRPRPQGGPRP | 0.114 |
| RRIRLRPPRLPRPRPRPRYVPRP | -0.265 |
| RRIRDRPPRLPRPRPRPRMWPRP | 0.0802 |
| RRIRARPPRLPRPRPRPSCMPRP | 0.29 |
| RRIRCRPPRLPRPRPRPQDGPRP | 0.143 |
| RRIRDRPPRLPRPRPRPGQLPRP | -0.284 |
| RRIRLRPPRLPRPRPRPGKHPRP | -0.0923 |
| RRIRIRPPRLPRPRPRPAHLPRP | 0.117 |
| RRIRQRPPRLPRPRPRPRCRPRP | 0.0135 |
| RRIRIRPPRLPRPRPRPGRLPRP | 0.12 |
| RRIRERPPRLPRPRPRPCFSPRP | -0.0538 |
| RRIRIRPPRLPRPRPRPCFSPRP | -0.198 |
| RRIRHRPPRLPRPRPRPAPGPRP | 0.536 |
| RRIRDRPPRLPRPRPRPTIWPRP | -0.0201 |
| RRIRRRPPRLPRPRPRPLREPRP | 1.14 |
| RRIRHRPPRLPRPRPRPYGNPRP | -0.298 |
| RRIRKRPPRLPRPRPRPAFHPRP | 0.0641 |
| RRIRARPPRLPRPRPRPTALPRP | 0.513 |
| RRIRSRPPRLPRPRPRPRHLPRP | -0.319 |

| Sequence | shrunken log2 fold change |
| --- | --- |
| RRIRDRPPRLPRPRPRPPMDPRP | 0.28 |
| RRIRARPPRLPRPRPRPWPEPRP | 0.245 |
| RRIRWRPPRLPRPRPRPVYCPRP | -0.196 |
| RRIRVRPPRLPRPRPRPHRVPRP | 0.133 |
| RRIRSRPPRLPRPRPRPGRIPRP | -0.0494 |
| RRIRRRPPRLPRPRPRPPQAPRP | 1.19 |
| RRIRRRPPRLPRPRPRPELYPRP | 0.247 |
| RRIRARPPRLPRPRPRPKMTPRP | 0.365 |
| RRIRPRPPRLPRPRPRPHKWPRP | -0.216 |
| RRIRSRPPRLPRPRPRPEKFPRP | -0.146 |
| RRIRIRPPRLPRPRPRPAVPPRP | -0.181 |
| RRIRPRPPRLPRPRPRPYRRPRP | -0.198 |
| RRIRVRPPRLPRPRPRPMKGPRP | -0.01 |
| RRIRRRPPRLPRPRPRPFTFPRP | -0.247 |
| RRIRHRPPRLPRPRPRPNPEPRP | -0.00699 |
| RRIRFRPPRLPRPRPRPECRPRP | -0.0408 |
| RRIRLRPPRLPRPRPRPFDGPRP | -0.00197 |
| RRIRIRPPRLPRPRPRPYLSPRP | -0.0357 |
| RRIRVRPPRLPRPRPRPETIPRP | 0.0608 |
| RRIRTRPPRLPRPRPRPRQVPRP | -0.0471 |
| RRIRQRPPRLPRPRPRPQLMPRP | -0.166 |
| RRIRWRPPRLPRPRPRPIMCPRP | -0.0807 |
| RRIRCRPPRLPRPRPRPNCQPRP | -0.134 |

| Sequence | shrunken log2 fold change |
| --- | --- |
| RRIRARPPRLPRPRPRPDAAPRP | 1.48 |
| RRIRERPPRLPRPRPRPLIDPRP | -0.352 |
| RRIRPRPPRLPRPRPRPHTAPRP | -0.205 |
| RRIRNRPPRLPRPRPRPLMVPRP | -0.254 |
| RRIRARPPRLPRPRPRPMEYPRP | -0.154 |
| RRIRNRPPRLPRPRPRPEGYPRP | -0.169 |
| RRIRERPPRLPRPRPRPTGVPRP | -0.129 |
| RRIRDRPPRLPRPRPRPPPGPRP | 0.774 |
| RRIRVRPPRLPRPRPRPSGMPRP | 0.489 |
| RRIRPRPPRLPRPRPRPKPFPRP | 0.129 |
| RRIRDRPPRLPRPRPRPFSCPRP | 0.171 |
| RRIRRRPPRLPRPRPRPINKPRP | -0.431 |
| RRIRTRPPRLPRPRPRPHANPRP | -0.254 |
| RRIRTRPPRLPRPRPRPPVHPRP | 0.0813 |
| RRIRERPPRLPRPRPRPYSIPRP | -0.0605 |
| RRIRNRPPRLPRPRPRPNHDPRP | -0.602 |
| RRIRWRPPRLPRPRPRPVNEPRP | -0.0791 |
| RRIRMRPPRLPRPRPRPIRPPRP | -0.127 |
| RRIRLRPPRLPRPRPRPCHHPRP | -0.322 |
| RRIRWRPPRLPRPRPRPEQEPRP | 0.0529 |
| RRIRMRPPRLPRPRPRPPYIPRP | -0.0556 |
| RRIRLRPPRLPRPRPRPAPTPRP | 0.28 |
